Assay results reported in patent publication US20230027639A1.

Assays:
[1] = molecular target: anti-CD19 CAR on CD19 CAR-T cells (the extracellular binding domain of the CAR was FMC63scfv); experiment: flow cytometry on CD19 CAR-T cells; mean ± SD of three parallel experiments
[2] = molecular target: anti-CD19 CAR on CD19 CAR-T cells (the extracellular binding domain of the CAR was FMC63scfv); experiment: flow cytometry on CD19 CAR-T cells, Biotinylated Human CD19 Fc Tag detected with PE anti-Biotin; percent CAR-positive cells, replicate 2
[3] = molecular target: anti-CD19 CAR on CD19 CAR-T cells (the extracellular binding domain of the CAR was FMC63scfv); experiment: flow cytometry on CD19 CAR-T cells, Biotinylated Human CD19 Fc Tag detected with PE anti-Biotin; percent CAR-positive cells, replicate 3
[4] = molecular target: anti-CD19 CAR on CD19 CAR-T cells (the extracellular binding domain of the CAR was FMC63scfv); experiment: flow cytometry on CD19 CAR-T cells, Biotinylated Human CD19 Fc Tag detected with PE anti-Biotin; percent CAR-positive cells, replicate 1
[5] = molecular target: anti-CD19 CAR on CD19 CAR-T cells (the extracellular binding domain of the CAR was FMC63scfv); experiment: cell-based or functional assay
[6] = molecular target: anti-CD19 CAR on CD19 CAR-T cells (the extracellular binding domain of the CAR was FMC63scfv); experiment: flow cytometry on CD19 CAR-T cells, biotin-labelled antibody detected with PE anti-Biotin; percent CAR-positive cells, replicate 2
[7] = molecular target: anti-CD19 CAR on CD19 CAR-T cells (the extracellular binding domain of the CAR was FMC63scfv); experiment: flow cytometry on CD19 CAR-T cells, biotin-labelled antibody detected with PE anti-Biotin; percent CAR-positive cells, replicate 1
[8] = molecular target: anti-CD19 CAR on CD19 CAR-T cells (the extracellular binding domain of the CAR was FMC63scfv); experiment: flow cytometry on CD19 CAR-T cells, biotin-labelled antibody detected with PE anti-Biotin; percent CAR-positive cells, replicate 3

For “Biotinylated Human CD19, Fc Tag (ACROBiosystems, model CD19-H8259) (from UniProt P15391 20-291) (Fc fusion)”, the CAR % (mean of three measurements) [1] was 14.2%, the CAR % [2] was 12.3% and the CAR % [3] was 20.1%. It also gave a CAR % [4] of 10.3%.

B1: monoclonal antibody 3984-mab001-H (scFv)
scFv: EIQLQQSGPELVKPGASVKVSCKASGYSFTDYTMYWVKQSHGKSLEWIGYIDPYNGGTNYSQRFKGKATLTVDKSSSTAFMHLNSLPSEDSAVYYCANTYDNYEFAYWGQGTLVTVSAGGGGSGGGGSGGGGSDIQMTQTTSSLSASLGDRVTISCRASQDISNYLNWYQQKPDGTVKLLIYYTSRLRSGVPSRFSGSGSGADYSLTISNLEQEDIATYFCQQGDTLPYTFGGGTKLEIN
With B1 the killing rate of CD19+K562 cells by CAR-T cells (LDH release), effector:target 1:1, mAb 5 µg/ml (16.0% without mAb) [5] was 16.1%, the killing rate of CD19+K562 cells by CAR-T cells (LDH release), effector:target 1:1, mAb 25 µg/ml (16.0% without mAb) [5] was 6.5% and the killing rate of CD19+K562 cells by CAR-T cells (LDH release), effector:target 5:1, mAb 5 µg/ml (51.5% without mAb) [5] was 39.1%. It also gave a killing rate of CD19+K562 cells by CAR-T cells (LDH release), effector:target 5:1, mAb 25 µg/ml (51.5% without mAb) [5] of 32.1%.

B2: biotin-labeled monoclonal antibody Bio-3984-mab001-H (scFv)
scFv: B1 scFv
modifications: biotin label (Sulfo-NHS-Biotin); labelled residues not stated
B2 showed a CAR % (mean of three measurements) [1] of 47.9%, a CAR % [6] of 48.5% and a CAR % [7] of 47.9%. It also gave a CAR % [8] of 47.2%.
